{"source": "paper PMC5548745", "about": "“Agonist-induced dimer dissociation as a macromolecular step in G protein-coupled receptor signaling” (Nature Communications, 2017)", "molecules": {"B1": {"name": "WNT-5A: recombinant carrier-free WNT-5A (R&D Systems), agonist for FZDs (protein, UniProt P41221 62-380, looked up)", "Protein Wnt-5a": "IIGAQPLCSQLAGLSQGQKKLCHLYQDHMQYIGEGAKTGIKECQYQFRHRRWNCSTVDNTSVFGRVMQIGSRETAFTYAVSAAGVVNAMSRACREGELSTCGCSRAARPKDLPRDWLWGGCGDNIDYGYRFAKEFVDARERERIHAKGSYESARILMNLHNNEAGRRTVYNLADVACKCHGVSGSCSLKTCWLQLADFRKVGDALKEKYDSAAAMRLNSRGKLVQVNSRFNSPTTQDLVYIDPSPDYCVRNESTGSLGTQGRLCNKTSEGMDGCELMCCGRGYDQFKTVQTERCHCKFHWCCYVKCKKCTEIVDQFVCK"}}, "key": {"[1]": {"test_system": "ERK1/2 phosphorylation in MLE-12 cells", "experiment": "P-ERK1/2 immunoblot, WNT-5A stimulated MLE-12 cells", "format": "cell-based, mouse", "conditions": "300 ng ml^−1 WNT-5A", "protocol": "MLE-12 or HEK293 cells (ATCC) were plated in a 24- or 48-well plate at a density of 100,000 or 50,000 cells/well, respectively. After 24 h, cells were transfected using Lipofectamine 2000 according to the manufacturer’s instructions. Cells were stimulated (24 h post-transfection) with 300 ng ml^−1 recombinant carrier-free WNT-5A (CF WNT-5A; R&D Systems). Stimulation was stopped by the addition of lysis buffer (1% NP-40, 150 mM NaCl, 50 mM Tris/HCl pH 8). Lysates were sonicated and analyzed by 7.5 or 10% Mini-PROTEAN TGX precast polyacrylamide gels (Bio-Rad) and transferred to PVDF membranes using the Trans-Blot Turbo system (Bio-Rad). […] Proteins were detected with horseradish peroxidase-conjugated secondary antibodies (goat anti-rabbit and goat anti-mouse (Pierce)) and Clarity Western ECL Blotting Substrate (Bio-Rad). […]\nSupplementary Figure 6: FZD6 in mouse lung epithelial cells, related to Figure 6. […] The bar graph depicts expression levels of fzd1-10 mRNA in mouse lung epithelial cells (MLE-12) measured by quantitative PCR. […] Primer efficiency has been quantified previously (Halleskog et al., 2012). (b) MLE-12 wt and CRISPR/Cas9 FZD6+/- cells were seeded in a 24-well plate and counted after trypsinization at the indicated time points. Cell proliferation was quantified by cell counting in a Bürker chamber. […]"}, "FZD6–FZD6 dimer": {"test_system": "FZD6–FZD6 dimer", "experiment": "dcFRAP of V5-FZD6-mCherry/FZD6-GFP (FZD6 dimerization)", "format": "cell-based, human", "conditions": "HEK293, after CL", "procedure,_shortened": "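Live cells co-expressing V5-FZD6-mCherry and FZD6-GFP, surface V5 tag crosslinked with biotin-anti-V5 plus avidin in BE buffer at RT. Membrane areas photobleached, recovery imaged (488/561 nm) over 100 s; mobile fraction from background/bleach-corrected, pre-bleach-normalized intensity at 85-101 s. Cells with <40% crosslink-induced mobility reduction excluded.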"}}}
{"molecule": "B1", "values": [{"measurement": "phosphorylation of ERK1/2 on WNT-5A stimulation", "setting": "[1]", "value": "time-dependent, partially pertussis toxin-sensitive phosphorylation of ERK1/2"}, {"measurement": "time of maximal increase in P-ERK1/2", "setting": "[1]; 0–20 min, three independent experiments", "value": 5, "unit": "min"}, {"measurement": "mobile fraction of FZD6-GFP after WNT-5A, 5 min", "setting": "FZD6–FZD6 dimer; WNT-5A 300 ng ml^−1, 5 min, 12 ROIs", "value": "71.8 ± 3.2", "unit": "%"}, {"measurement": "mobile fraction of FZD6-GFP after WNT-5A, 20 min", "setting": "FZD6–FZD6 dimer; WNT-5A 300 ng ml^−1, 20 min, 15 ROIs", "value": "61.0 ± 2.2", "unit": "%"}]}
